Numbered stars: 1 amine (or outer) side, 2 acyl side, 3 side chain; on linkers, the order of the positions; unused ones are H or OH. * marks the point of attachment. C20 diacid = O=C(O)CCCCCCCCCCCCCCCCCCC(=O)*; γGlu = O=C(O)[C@H](CCC(=O)[*:2])N[*:1]
T1: human calcitonin receptor on BHK570/CRE-luc cells (human, UniProt P30988 25-474)
T1 sequence (looked up): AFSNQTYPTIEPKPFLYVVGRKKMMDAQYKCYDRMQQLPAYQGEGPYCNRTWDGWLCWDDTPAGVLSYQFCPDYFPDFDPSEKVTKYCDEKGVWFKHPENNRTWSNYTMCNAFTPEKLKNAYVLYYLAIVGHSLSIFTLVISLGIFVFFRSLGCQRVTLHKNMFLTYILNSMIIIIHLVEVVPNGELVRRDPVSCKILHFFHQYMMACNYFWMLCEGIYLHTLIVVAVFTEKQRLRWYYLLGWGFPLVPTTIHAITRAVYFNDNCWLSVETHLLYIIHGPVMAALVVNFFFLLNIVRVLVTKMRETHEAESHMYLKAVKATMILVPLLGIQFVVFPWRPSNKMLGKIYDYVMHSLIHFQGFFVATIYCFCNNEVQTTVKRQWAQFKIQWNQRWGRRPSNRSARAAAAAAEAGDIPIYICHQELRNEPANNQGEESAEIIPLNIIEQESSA

T2: human amylin 3(a) receptor (human calcitonin receptor co-expressed with RAMP-3) on BHK570/CRE-luc cells (human, UniProt P30988 25-474; O60896 24-148)
T2 sequence (looked up) 1: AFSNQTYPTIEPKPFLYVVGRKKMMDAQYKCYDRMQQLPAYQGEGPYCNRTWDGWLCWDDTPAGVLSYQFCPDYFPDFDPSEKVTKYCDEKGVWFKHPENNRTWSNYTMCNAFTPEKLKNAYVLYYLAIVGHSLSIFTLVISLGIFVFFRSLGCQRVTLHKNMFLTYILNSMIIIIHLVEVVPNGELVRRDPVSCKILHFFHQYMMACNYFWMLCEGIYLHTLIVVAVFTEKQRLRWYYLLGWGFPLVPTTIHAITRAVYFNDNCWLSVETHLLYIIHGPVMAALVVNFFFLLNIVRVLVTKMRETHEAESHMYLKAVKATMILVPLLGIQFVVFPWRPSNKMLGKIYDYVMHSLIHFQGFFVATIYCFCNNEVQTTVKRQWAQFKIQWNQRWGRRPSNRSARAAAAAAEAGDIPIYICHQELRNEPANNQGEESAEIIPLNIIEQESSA
T2 sequence (looked up) 2: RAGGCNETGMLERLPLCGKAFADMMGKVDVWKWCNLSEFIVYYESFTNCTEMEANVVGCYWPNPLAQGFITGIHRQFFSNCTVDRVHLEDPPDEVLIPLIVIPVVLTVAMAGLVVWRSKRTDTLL


How the values were obtained:
[1] = biological target: T1, human calcitonin receptor on …; experiment: cell-based or functional assay
[2] = biological target: T2, human amylin 3(a) receptor (human …); experiment: cell-based or functional assay

| Binder | hCTR funct. EC50 (pM), tested with HSA [1] [pM] | hAmylin-R funct. EC50 (pM), tested with HSA [2] [pM] |
| --- | --- | --- |
| {C20 diacid-γGlu}-ASELSTAALGRLSAELHELATLPRTETGSGSA-NH2 (SMILES CC(C)C[C@H](NC(=O)[C@H](C)NC(=O)[C@H](C)NC(=O)[C@@H](NC(=O)[C@H](CO)NC(=O)[C@H](CC(C)C)NC(=O)[C@H](CCC(=O)O)NC(=O)[C@H](CO)NC(=O)[C@H](C)NC(=O)CC[C@H](NC(=O)CCCCCCCCCCCCCCCCCCC(=O)O)C(=O)O)[C@@H](C)O)C(=O)NCC(=O)N[C@@H](CCCNC(=N)N)C(=O)N[C@@H](CC(C)C)C(=O)N[C@@H](CO)C(=O)N[C@@H](C)C(=O)N[C@@H](CCC(=O)O)C(=O)N[C@@H](CC(C)C)C(=O)N[C@@H](Cc1c[nH]cn1)C(=O)N[C@@H](CCC(=O)O)C(=O)N[C@@H](CC(C)C)C(=O)N[C@@H](C)C(=O)N[C@H](C(=O)N[C@@H](CC(C)C)C(=O)N1CCC[C@H]1C(=O)N[C@@H](CCCNC(=N)N)C(=O)N[C@H](C(=O)N[C@@H](CCC(=O)O)C(=O)N[C@H](C(=O)NCC(=O)N[C@@H](CO)C(=O)NCC(=O)N[C@@H](CO)C(=O)N[C@@H](C)C(N)=O)[C@@H](C)O)[C@@H](C)O)[C@@H](C)O) [[N-terminal(C20 diacid-gGlu), des1, 30S, 31G, 33A]mimylin] | 102 | 265 |
| {C20 diacid-γGlu}-ASELSTAALGRLSAELHELATLPRTETGSGSG-NH2 (SMILES CC(C)C[C@H](NC(=O)[C@H](C)NC(=O)[C@H](C)NC(=O)[C@@H](NC(=O)[C@H](CO)NC(=O)[C@H](CC(C)C)NC(=O)[C@H](CCC(=O)O)NC(=O)[C@H](CO)NC(=O)[C@H](C)NC(=O)CC[C@H](NC(=O)CCCCCCCCCCCCCCCCCCC(=O)O)C(=O)O)[C@@H](C)O)C(=O)NCC(=O)N[C@@H](CCCNC(=N)N)C(=O)N[C@@H](CC(C)C)C(=O)N[C@@H](CO)C(=O)N[C@@H](C)C(=O)N[C@@H](CCC(=O)O)C(=O)N[C@@H](CC(C)C)C(=O)N[C@@H](Cc1c[nH]cn1)C(=O)N[C@@H](CCC(=O)O)C(=O)N[C@@H](CC(C)C)C(=O)N[C@@H](C)C(=O)N[C@H](C(=O)N[C@@H](CC(C)C)C(=O)N1CCC[C@H]1C(=O)N[C@@H](CCCNC(=N)N)C(=O)N[C@H](C(=O)N[C@@H](CCC(=O)O)C(=O)N[C@H](C(=O)NCC(=O)N[C@@H](CO)C(=O)NCC(=O)N[C@@H](CO)C(=O)NCC(N)=O)[C@@H](C)O)[C@@H](C)O)[C@@H](C)O) [[N-terminal(C20 diacid-gGlu), des1, 30S, 31G, 33G]mimylin] | 239 | 435 |
| {C20 diacid-γGlu}-ASELSTAALGRLSAELHELATLPRTETGSGSS-NH2 (SMILES CC(C)C[C@H](NC(=O)[C@H](C)NC(=O)[C@H](C)NC(=O)[C@@H](NC(=O)[C@H](CO)NC(=O)[C@H](CC(C)C)NC(=O)[C@H](CCC(=O)O)NC(=O)[C@H](CO)NC(=O)[C@H](C)NC(=O)CC[C@H](NC(=O)CCCCCCCCCCCCCCCCCCC(=O)O)C(=O)O)[C@@H](C)O)C(=O)NCC(=O)N[C@@H](CCCNC(=N)N)C(=O)N[C@@H](CC(C)C)C(=O)N[C@@H](CO)C(=O)N[C@@H](C)C(=O)N[C@@H](CCC(=O)O)C(=O)N[C@@H](CC(C)C)C(=O)N[C@@H](Cc1c[nH]cn1)C(=O)N[C@@H](CCC(=O)O)C(=O)N[C@@H](CC(C)C)C(=O)N[C@@H](C)C(=O)N[C@H](C(=O)N[C@@H](CC(C)C)C(=O)N1CCC[C@H]1C(=O)N[C@@H](CCCNC(=N)N)C(=O)N[C@H](C(=O)N[C@@H](CCC(=O)O)C(=O)N[C@H](C(=O)NCC(=O)N[C@@H](CO)C(=O)NCC(=O)N[C@@H](CO)C(=O)N[C@@H](CO)C(N)=O)[C@@H](C)O)[C@@H](C)O)[C@@H](C)O) [[N-terminal(C20 diacid-gGlu), des1, 30S, 31G, 33S]mimylin] | 154 | 328 |
| {C20 diacid-γGlu}-ASELSTAALGRLSAELHELATLPRTETGSGSH-NH2 (SMILES CC(C)C[C@H](NC(=O)[C@H](C)NC(=O)[C@H](C)NC(=O)[C@@H](NC(=O)[C@H](CO)NC(=O)[C@H](CC(C)C)NC(=O)[C@H](CCC(=O)O)NC(=O)[C@H](CO)NC(=O)[C@H](C)NC(=O)CC[C@H](NC(=O)CCCCCCCCCCCCCCCCCCC(=O)O)C(=O)O)[C@@H](C)O)C(=O)NCC(=O)N[C@@H](CCCNC(=N)N)C(=O)N[C@@H](CC(C)C)C(=O)N[C@@H](CO)C(=O)N[C@@H](C)C(=O)N[C@@H](CCC(=O)O)C(=O)N[C@@H](CC(C)C)C(=O)N[C@@H](Cc1c[nH]cn1)C(=O)N[C@@H](CCC(=O)O)C(=O)N[C@@H](CC(C)C)C(=O)N[C@@H](C)C(=O)N[C@H](C(=O)N[C@@H](CC(C)C)C(=O)N1CCC[C@H]1C(=O)N[C@@H](CCCNC(=N)N)C(=O)N[C@H](C(=O)N[C@@H](CCC(=O)O)C(=O)N[C@H](C(=O)NCC(=O)N[C@@H](CO)C(=O)NCC(=O)N[C@@H](CO)C(=O)N[C@@H](Cc1c[nH]cn1)C(N)=O)[C@@H](C)O)[C@@H](C)O)[C@@H](C)O) [[N-terminal(C20 diacid-gGlu), des1, 30S, 31G, 33H]mimylin] | 72 | 125 |
| {C20 diacid-γGlu}-ASELSTAALGRLSAELHELATLPRTETGSGSF-NH2 (SMILES CC(C)C[C@H](NC(=O)[C@H](C)NC(=O)[C@H](C)NC(=O)[C@@H](NC(=O)[C@H](CO)NC(=O)[C@H](CC(C)C)NC(=O)[C@H](CCC(=O)O)NC(=O)[C@H](CO)NC(=O)[C@H](C)NC(=O)CC[C@H](NC(=O)CCCCCCCCCCCCCCCCCCC(=O)O)C(=O)O)[C@@H](C)O)C(=O)NCC(=O)N[C@@H](CCCNC(=N)N)C(=O)N[C@@H](CC(C)C)C(=O)N[C@@H](CO)C(=O)N[C@@H](C)C(=O)N[C@@H](CCC(=O)O)C(=O)N[C@@H](CC(C)C)C(=O)N[C@@H](Cc1c[nH]cn1)C(=O)N[C@@H](CCC(=O)O)C(=O)N[C@@H](CC(C)C)C(=O)N[C@@H](C)C(=O)N[C@H](C(=O)N[C@@H](CC(C)C)C(=O)N1CCC[C@H]1C(=O)N[C@@H](CCCNC(=N)N)C(=O)N[C@H](C(=O)N[C@@H](CCC(=O)O)C(=O)N[C@H](C(=O)NCC(=O)N[C@@H](CO)C(=O)NCC(=O)N[C@@H](CO)C(=O)N[C@@H](Cc1ccccc1)C(N)=O)[C@@H](C)O)[C@@H](C)O)[C@@H](C)O) [[N-terminal(C20 diacid-gGlu), des1, 30S, 31G, 33F]mimylin] | 73 | 94 |
| {C20 diacid-γGlu}-ASELSTAALGRLSAELHELATLPRTETGSGSY-NH2 (SMILES CC(C)C[C@H](NC(=O)[C@H](C)NC(=O)[C@H](C)NC(=O)[C@@H](NC(=O)[C@H](CO)NC(=O)[C@H](CC(C)C)NC(=O)[C@H](CCC(=O)O)NC(=O)[C@H](CO)NC(=O)[C@H](C)NC(=O)CC[C@H](NC(=O)CCCCCCCCCCCCCCCCCCC(=O)O)C(=O)O)[C@@H](C)O)C(=O)NCC(=O)N[C@@H](CCCNC(=N)N)C(=O)N[C@@H](CC(C)C)C(=O)N[C@@H](CO)C(=O)N[C@@H](C)C(=O)N[C@@H](CCC(=O)O)C(=O)N[C@@H](CC(C)C)C(=O)N[C@@H](Cc1c[nH]cn1)C(=O)N[C@@H](CCC(=O)O)C(=O)N[C@@H](CC(C)C)C(=O)N[C@@H](C)C(=O)N[C@H](C(=O)N[C@@H](CC(C)C)C(=O)N1CCC[C@H]1C(=O)N[C@@H](CCCNC(=N)N)C(=O)N[C@H](C(=O)N[C@@H](CCC(=O)O)C(=O)N[C@H](C(=O)NCC(=O)N[C@@H](CO)C(=O)NCC(=O)N[C@@H](CO)C(=O)N[C@@H](Cc1ccc(O)cc1)C(N)=O)[C@@H](C)O)[C@@H](C)O)[C@@H](C)O) [[N-terminal(C20 diacid-gGlu), des1, 30S, 31G, 33Y]mimylin] | 49 | 62 |
| {C20 diacid-γGlu}-ASELSTAALGRLSAELHELATLPRTETGSGSL-NH2 (SMILES CC(C)C[C@H](NC(=O)[C@H](CO)NC(=O)CNC(=O)[C@H](CO)NC(=O)CNC(=O)[C@@H](NC(=O)[C@H](CCC(=O)O)NC(=O)[C@@H](NC(=O)[C@H](CCCNC(=N)N)NC(=O)[C@@H]1CCCN1C(=O)[C@H](CC(C)C)NC(=O)[C@@H](NC(=O)[C@H](C)NC(=O)[C@H](CC(C)C)NC(=O)[C@H](CCC(=O)O)NC(=O)[C@H](Cc1c[nH]cn1)NC(=O)[C@H](CC(C)C)NC(=O)[C@H](CCC(=O)O)NC(=O)[C@H](C)NC(=O)[C@H](CO)NC(=O)[C@H](CC(C)C)NC(=O)[C@H](CCCNC(=N)N)NC(=O)CNC(=O)[C@H](CC(C)C)NC(=O)[C@H](C)NC(=O)[C@H](C)NC(=O)[C@@H](NC(=O)[C@H](CO)NC(=O)[C@H](CC(C)C)NC(=O)[C@H](CCC(=O)O)NC(=O)[C@H](CO)NC(=O)[C@H](C)NC(=O)CC[C@H](NC(=O)CCCCCCCCCCCCCCCCCCC(=O)O)C(=O)O)[C@@H](C)O)[C@@H](C)O)[C@@H](C)O)[C@@H](C)O)C(N)=O) [[N-terminal(C20 diacid-gGlu), des1, 30S, 31G, 33L]mimylin] | 78 | 168 |
